Measurements: paper PMC8151288

Columns and labels:
[1] = biological target: His6-PA3027 (Pseudomonas aeruginosa PAO1161) (UniProt Q9HZH9); assay: SEC-MALS; 100 uL of 1 mg/mL His6-PA3027 on Superdex 200 Increase 10/300 in Buffer S (20 mM MES pH 6.5, 200 mM (NH4)2SO4, 200 mM NaCl), room temperature, 0.5 mL/min; monomer and dimer
[2] = biological target: His6-PA3027 (Pseudomonas aeruginosa PAO1161) (UniProt Q9HZH9); assay: cross-linking; purified His6-PA3027 cross-linked with increasing concentration of glutaraldehyde; Western blot with anti-His antibodies

stoichiometry N [1]: 2
stoichiometry N [2]: 2
Substance: His6-PA3027 (from UniProt Q9HZH9 1-343) (natural protein)
